The results in this text go back to US20160368965A1 (IMMATICS BIOTECHNOLOGIES, published 2016).

The chains are these.
B1: SIDSEPALV (SEQ ID NO: 93) (peptide)
peptide: SIDSEPALV
B2: AVAAVLTQV (SEQ ID NO: 103) (peptide)
peptide: AVAAVLTQV
B3: LLFNDVQTL (SEQ ID NO: 91) (peptide)
peptide: LLFNDVQTL
B4: ALSKEIYVI (SEQ ID NO: 83) (peptide)
peptide: ALSKEIYVI
B5: FLSDGTIISV (SEQ ID NO: 85) (peptide)
peptide: FLSDGTIISV
B6: ALAPATGGGSLLL (SEQ ID NO: 96) (peptide)
peptide: ALAPATGGGSLLL
B7: ALVEENGIFEL (SEQ ID NO: 101) (peptide)
peptide: ALVEENGIFEL
B8: YLTNEGIAHL (SEQ ID NO: 92) (peptide)
peptide: YLTNEGIAHL
B9: ALESFLKQV (SEQ ID NO: 99) (peptide)
peptide: ALESFLKQV
B10: ALDQKVRSV (SEQ ID NO: 98) (peptide)
peptide: ALDQKVRSV
B11: ALIAEGIAL (SEQ ID NO: 82) (peptide)
peptide: ALIAEGIAL
B12: SLQDTEEKSRS (SEQ ID NO: 78) (peptide)
peptide: SLQDTEEKSRS
B13: ALFGAGPASI (SEQ ID NO: 100) (peptide)
peptide: ALFGAGPASI
B14: FILPIGATV (SEQ ID NO: 84) (peptide)
peptide: FILPIGATV
B15: QIIDAINKV (SEQ ID NO: 9) (peptide)
peptide: QIIDAINKV
B16: ALDDMISTL (SEQ ID NO: 97) (peptide)
peptide: ALDDMISTL
B17: LLPGTEYVVSV (SEQ ID NO: 80) (peptide)
peptide: LLPGTEYVVSV
B18: VVYDDSTGLIRL (SEQ ID NO: 81) (peptide)
peptide: VVYDDSTGLIRL
B19: IIDDTIFNL (SEQ ID NO: 88) (peptide)
peptide: IIDDTIFNL
B20: GLGDFIFYSV (SEQ ID NO: 86) (peptide)
peptide: GLGDFIFYSV
B21: KLADIQIEQL (SEQ ID NO: 89) (peptide)
peptide: KLADIQIEQL
B22: VVYEGQLISI (SEQ ID NO: 79) (peptide)
peptide: VVYEGQLISI
B23: VMMEEFVQL (SEQ ID NO: 94) (peptide)
peptide: VMMEEFVQL
B24: GLLPALVAL (SEQ ID NO: 87) (peptide)
peptide: GLLPALVAL
B25: ALYTGSALDFV (SEQ ID NO: 8) (peptide)
peptide: ALYTGSALDFV
B26: KLLTPITTL (SEQ ID NO: 90) (peptide)
peptide: KLLTPITTL
B27: ALYPGTDYTV (SEQ ID NO: 102) (peptide)
peptide: ALYPGTDYTV
B28: ALADDDFLTV (SEQ ID NO: 95) (peptide)
peptide: ALADDDFLTV

The assay addresses T1, HLA-A*02:01 (human).
T1 construct: the tested peptide takes its place; also called peptide-receptive MHC molecules; MHC class I
The assay can be described thus: UV-ligand exchange, anti-β2m ELISA; grade of peptide exchange yield. A digest of the protocol:
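Peptide-HLA-A*02:01 complexes were formed by UV-induced exchange of a photocleavable ligand. Exchange products, diluted 100-fold, were captured on streptavidin plates, detected with HRP anti-β2m (1 h, 37° C) and TMB at 450 nm; yield was quantified against refolded HLA-A*02:01/MLA-001 standards (15-500 ng/ml).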
A general note: In an ELISA, binding on a coated surface is turned into a signal by an enzyme label.
B1 returned a peptide exchange yield of 50 to 75%.

Molecule B2 registered a peptide exchange yield of 50 to 75%.

B3 showed a peptide exchange yield of 50 to 75%.

For B4, the peptide exchange yield lay within 50 to 75%.

Regarding B5, the peptide exchange yield is at least 75%.

B6 showed a peptide exchange yield of 50 to 75%.

B7 had a peptide exchange yield of 50 to 75%.

In turn, B8 gave a peptide exchange yield of at least 75%.

As to B9, the peptide exchange yield lay within 50 to 75%.

With B10, the peptide exchange yield was 20 to 50%.

For the molecule B11, the peptide exchange yield lay in the range of 50 to 75%.

The molecule B12 displayed a peptide exchange yield of 50 to 75%.

For B13, the peptide exchange yield fell in the range of 50 to 75%.

Regarding B14, the peptide exchange yield is at least 75%.

The molecule B15 returned a peptide exchange yield of 20 to 50%.

Molecule B16 displayed a peptide exchange yield of 50 to 75%.

As to B17, the peptide exchange yield was in the range of 50 to 75%.

In the case of B18, the peptide exchange yield fell in the range of 50 to 75%.

On to B19, for which the peptide exchange yield lay within 50 to 75%.

Regarding B20, the peptide exchange yield is at least 75%.

Consider B21, for which the peptide exchange yield is 50 to 75%.

In turn, B22 showed a peptide exchange yield of 50 to 75%.

Molecule B23 displayed a peptide exchange yield of 50 to 75%.

For the molecule B24, the peptide exchange yield was 50 to 75%.

As to B25, the peptide exchange yield was in the range of 50 to 75%.

Turning to B26, the peptide exchange yield lay in the range of 50 to 75%.

The molecule B27 returned a peptide exchange yield of 50 to 75%.

Turning to B28, the peptide exchange yield fell in the range of 50 to 75%.
